Source: patent EP1314779B1
Like-named read-outs stand apart in the source and are kept apart here.

Tests used:
[1] = molecular target: proEGF on the surface of NCI-H292 cell membranes (human) (UniProt P01133); test: flow cytometry on NCI-H292 cells, background staining with normal mouse IgG1
[2] = molecular target: proEGF on the surface of NCI-H292 cell membranes (human) (UniProt P01133); test: as above; remark: listed apart in the source

UniProt P01133, sequence (P01133 23-1207): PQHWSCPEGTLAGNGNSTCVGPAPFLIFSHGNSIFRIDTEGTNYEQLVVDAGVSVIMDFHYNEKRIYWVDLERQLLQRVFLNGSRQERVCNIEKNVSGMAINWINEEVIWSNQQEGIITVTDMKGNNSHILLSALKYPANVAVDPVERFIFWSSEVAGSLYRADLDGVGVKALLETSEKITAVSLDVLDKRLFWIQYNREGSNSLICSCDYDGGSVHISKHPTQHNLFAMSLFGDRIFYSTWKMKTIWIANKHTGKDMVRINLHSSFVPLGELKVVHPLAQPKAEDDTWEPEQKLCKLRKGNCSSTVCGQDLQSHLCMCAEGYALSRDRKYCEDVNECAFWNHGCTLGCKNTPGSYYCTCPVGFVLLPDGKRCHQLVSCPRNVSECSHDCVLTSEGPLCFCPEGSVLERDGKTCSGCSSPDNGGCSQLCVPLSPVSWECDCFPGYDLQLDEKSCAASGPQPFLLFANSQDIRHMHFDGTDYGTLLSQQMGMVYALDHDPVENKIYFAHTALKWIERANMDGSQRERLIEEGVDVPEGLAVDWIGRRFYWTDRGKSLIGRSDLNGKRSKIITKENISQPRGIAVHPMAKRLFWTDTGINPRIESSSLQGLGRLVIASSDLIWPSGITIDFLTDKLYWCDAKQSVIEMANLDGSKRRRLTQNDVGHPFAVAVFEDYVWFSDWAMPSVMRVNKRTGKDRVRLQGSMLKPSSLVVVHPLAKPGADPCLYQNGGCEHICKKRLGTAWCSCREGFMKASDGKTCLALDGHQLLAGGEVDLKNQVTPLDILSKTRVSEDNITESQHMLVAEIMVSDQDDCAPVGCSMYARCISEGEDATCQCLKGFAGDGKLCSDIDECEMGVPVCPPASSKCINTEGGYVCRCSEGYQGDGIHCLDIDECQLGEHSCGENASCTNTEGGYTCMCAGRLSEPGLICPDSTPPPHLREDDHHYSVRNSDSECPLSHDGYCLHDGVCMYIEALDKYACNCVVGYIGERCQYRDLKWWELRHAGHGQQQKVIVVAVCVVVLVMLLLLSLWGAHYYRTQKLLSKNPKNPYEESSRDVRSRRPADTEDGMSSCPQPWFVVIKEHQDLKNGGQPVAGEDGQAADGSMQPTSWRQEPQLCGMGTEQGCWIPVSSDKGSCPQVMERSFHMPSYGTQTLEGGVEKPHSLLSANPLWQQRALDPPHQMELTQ

Substance: normal mouse IgG1 (produced by R&D Corp.) (antibody)
- average fluorescence intensity [1]: 4.62
- average fluorescence intensity [2]: 8.44
